Measured values: US12508311B2, “Fusion protein, and preparation method and use thereof” (SUN YAT-SEN UNIVERSITY, priority 2021, dated 2025)

Columns and labels:
HCT116 cells = experiment: Flow cytometry of tumor cell targeting, HCT116; format: cell-based, human; details: tested as 60 nM TKD-Cy5, 1 hour, Lys 05 10 μM
Experimental: Wherein, the protein C18 column (25 cm×10 mm) was used, with sample injection of 2×400 μL each time, and gradient elution was carried out for 30 minutes, 0.1% TFA (trifluoroacetic acid) solution to MeCN (acetonitrile): H2O (0.1% TFA)=70:30, and a flow rate was 4 mL/min. • (4) Target color tape peaks were collected, and the retention time of a labeled polypeptide was longer than that of an unlabeled polypeptide. • (5) The TKD-Cy5 molecule was diluted to 60 μM, and stored in a PBS solution, and kept in the dark at −20° C. 2. […] The cells were treated with corresponding drugs, namely, in the experimental groups, the cells were treated with 60 nM TKD-Cy5 coupling molecule, and in the control groups, the cells were treated with the Cy5 single molecule with corresponding concentration. The lysosome inhibitor Lys 05 with the final concentration of 10 μM was added into the control groups and the experimental groups at the same time, and the final volume of the culture solution in each well was 1 mL. […] The cells were resuspended with the PBS buffer solution, and centrifuged again, and the supernatant was discarded. The operation was repeated for three times. Finally, the cleaned cells were resuspended in 0.2 mL of PBS, wrapped with foil paper, and then analyzed on the flow cytometer (company: BECKMAN COULTER; model: Cytoflex), with the fluorescence channel of APC-A.

[1] = tested on: KRas wild-type (HT29) colorectal cancer; experiment: In-vivo tumor formation experiment, HT29 subcutaneous tumor; parameters: species or system mice; details: seven times
Experimental: (§1) • (1) Balb/c nude mice, female, 4 weeks to 5 weeks old, purchased from Guangdong Laboratory Animal Center and raised in Laboratory Animal Center of Sun Yat-sen University, were used in this experiment. […] After counting, 7.5 million HT29 and HCT116 cells were taken respectively, washed twice with PBS, centrifuged at 300 g for 5 minutes after fishing each washing, and collected. • (3) The cell dilution buffer solution having the composition of PBS: matrix glue (Corning Company)=1:1 was prepared to resuspend the cells. […] In the experiment, the administration volume was 150 μL, the administration frequency was once every three days at a fixed time, and the administration was continued for seven times. • (6) After the administration, each mouse was injected with 150 μL of tribromoethanol, and then killed by cervical dislocation. […]
(§2) • (1) Balb/c nude mice, female, 4 weeks to 5 weeks old, purchased from Guangdong Laboratory Animal Center and raised in Laboratory Animal Center of Sun Yat-sen University, were used in this experiment. The experimental mice were divided into two groups, with five mice in each group, which were respectively a phosphate buffer solution (PBS) control group and a […]. • (2) The HT29 and HCT116 cells in the logarithmic phase were digested with pancreatin, the digestion was stopped with the complete culture solution, and then the cells were counted. […]

[2] = tested on: KRas mutant-type (HCT116) colorectal cancer; experiment: In-vivo tumor formation experiment, HCT116 subcutaneous tumor; parameters: species or system mice; details: seven times
Experimental: as §1, §2

HT29 (KRas wt) = experiment: Cell clone formation experiment, HT29; details: 10 and 20 μg/mL
[3] = TKD 25 and 50 mg/kg intraperitoneal, once every three days, vs PBS

B1: TKD: fusion protein: tumour-cell-penetrating peptide BR2, anti-KRas nanobody VHH and lysosome recognition peptide CTM; SEQ ID NO.4 (protein)
chain: RAGLQFPVGRLLRRLLRDVQLQESGGGLVQAGGSLRLSCVASGRTFSTYPTGWFRQAPGKEREFVARINLSGGITNYADSVKGRFTISRDNAKNTVYLQMNSLKPEDTAVYYCGGGSTTWAGGIPTNFDYWGQGTQVTVSSGRKFERQKILDQRFFE
- entry into cells (flow cytometry, Cy5 fluorescence) (HCT116 cells): could specifically recognize and pass through the cell membrane to enter the colorectal cancer cells
- inhibition of tumor growth (tumor weight) [1, 3]: could significantly inhibit the growth
- tumor growth inhibition, TKD-50 mg/kg group compared with TKD-25 mg/kg group ([1]; intraperitoneal): had a better effect than the TKD-25 mg/kg group
- inhibition of tumor growth (tumor weight) [2, 3]: could significantly inhibit the growth
- tumor growth inhibition, TKD-50 mg/kg group compared with TKD-25 mg/kg group ([2]; intraperitoneal): had a better effect than the TKD-25 mg/kg group
- inhibition of clone growth (HT29 (KRas wt)): could significantly inhibit the growth
